Source: article PMC12207370, “Macrocyclic Peptide Probes for Immunomodulatory Protein CD59: Potent Modulators of Bacterial Toxin Activity and Antibody‐Dependent Cytotoxicity” (Angewandte Chemie (International Ed. in English), 2025)

Biological target: T1, biotinylated CD59 (Homo sapiens, UniProt P13987)
T1 construct: Recombinant soluble human CD59 with an additional C-terminal cysteine residue
T1 sequence (P13987 26-102 limits assumed): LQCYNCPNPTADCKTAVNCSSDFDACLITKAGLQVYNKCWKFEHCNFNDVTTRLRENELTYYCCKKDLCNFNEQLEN
Test: mRNA-display cyclic peptide screen against CD59-biotin, NGS abundance after 6th selection round
Conditions: for Counts (raw counts for peptide sequence), Seq I: NGS sample Seq I; for Counts (raw counts for peptide sequence), Seq I / Counts (raw counts for peptide sequence), Seq II / Counts Seq I / Counts Seq II: sheet R6 (6th selection round); for Counts (raw counts for peptide sequence), Seq II: NGS sample Seq II; for Percentage of the pool, averaged across the two sequencing samples: average of Seq I and Seq II; for Percentage of the pool, averaged across the two sequencing samples / Percentage of the pool, Seq I / Percentage of the pool, Seq II / Percentage Seq I / Percentage Seq II / Percentage Average: sheet R6; for Percentage of the pool, Seq I: counts normalised by total counts of NGS sample Seq I; for Percentage of the pool, Seq II: counts normalised by total counts of NGS sample Seq II; for Percentage Seq I: counts normalised by total counts of sample Seq I; for Percentage Seq I / Percentage Seq II: percentage of the pool; for Percentage Seq II: counts normalised by total counts of sample Seq II; for Percentage Average: percentage of the pool averaged across the two sequencing samples; for Counts Seq I / Counts Seq II: raw NGS counts of peptide sequence; for Counts Seq I: sequencing sample Seq I; for Counts Seq II: sequencing sample Seq II
Method in brief: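 Peptide–mRNA fusions were made by in vitro translation with a customised PURE express kit. The kit lacked release factor 1 and methionine and was supplemented with […] initiator tRNA carrying N-chloroacetyl-d-tyrosine. Thioether macrocycles were formed, then enriched and amplified over iterative rounds on CD59-biotin immobilised on streptavidin beads. NGS read counts per sequence were recorded after the 6th selection round.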

Row | Sequence | Counts (raw counts for peptide sequence), Seq I | Counts (raw counts for peptide sequence), Seq II | Percentage of the pool, averaged across the two sequencing samples | Percentage of the pool, Seq I | Percentage of the pool, Seq II | Percentage Seq I | Percentage Seq II | Percentage Average | Counts Seq I | Counts Seq II
1 | CFSRRLTEGAI | 41 | 5 | 0.010% | 0.009% | 0.012% | – | – | – | – | –
2 | GRLNECHVTWP | 43 | 9 | 0.015% | 0.010% | 0.021% | – | – | – | – | –
3 | SAWGNRQIQHY | 74 | 3 | 0.012% | 0.017% | 0.007% | – | – | – | – | –
4 | LKPNGRCLPKV | – | – | – | – | – | 0.272% | 0.283% | 0.277% | 1189 | 122
5 | CYGGRTFIYSWS | 46 | 8 | 0.015% | 0.011% | 0.019% | – | – | – | – | –
6 | YGASPTSLCSGI | – | – | – | – | – | 0.166% | 0.186% | 0.176% | 727 | 80
7 | NYVERLCTSG | 68 | 5 | 0.014% | 0.016% | 0.012% | – | – | – | – | –
8 | WILGSRWWTQR | – | – | – | – | – | 0.021% | 0.021% | 0.021% | 91 | 9
9 | CYGGRTSIYAWS | – | – | – | – | – | 0.032% | 0.023% | 0.028% | 142 | 10
10 | FVTGDRDHTRG | – | – | – | – | – | 0.127% | 0.121% | 0.124% | 554 | 52
11 | CFTHRLTDFGT | – | – | – | – | – | 0.053% | 0.070% | 0.061% | 230 | 30
12 | CFVRRLNDLTTT | – | – | – | – | – | 0.121% | 0.137% | 0.129% | 528 | 59
13 | HVSGNRSFTRG | – | – | – | – | – | 0.024% | 0.035% | 0.029% | 104 | 15
14 | CFSRRLTAGAT | – | – | – | – | – | 0.045% | 0.035% | 0.040% | 195 | 15
15 | WIRGSRFYRVI | – | – | – | – | – | 0.387% | 0.334% | 0.360% | 1692 | 144
16 | FARGDLYSVLG | 71 | 5 | 0.014% | 0.016% | 0.012% | – | – | – | – | –
17 | CFAGRLTIDAV | – | – | – | – | – | 2.645% | 2.553% | 2.599% | 11574 | 1100
18 | CFSARATLDGGW | – | – | – | – | – | 0.036% | 0.030% | 0.033% | 157 | 13

Row | Sequence | Counts (raw counts for peptide sequence), Seq I | Counts (raw counts for peptide sequence), Seq II | Percentage of the pool, averaged across the two sequencing samples | Percentage of the pool, Seq I | Percentage of the pool, Seq II | Percentage Seq I | Percentage Seq II | Percentage Average | Counts Seq I | Counts Seq II
19 | SAYGSRDFAWA | – | – | – | – | – | 0.024% | 0.023% | 0.024% | 106 | 10
20 | AVAGSRHWAWG | – | – | – | – | – | 0.039% | 0.039% | 0.039% | 171 | 17
21 | CFSSRTGTTSV | 39 | 10 | 0.016% | 0.009% | 0.023% | – | – | – | – | –
22 | WVYGSRYWRSI | – | – | – | – | – | 0.030% | 0.014% | 0.022% | 132 | 6
23 | HVFGNRFFTRG | – | – | – | – | – | 0.031% | 0.039% | 0.035% | 135 | 17
24 | GYKNECHSFNW | 40 | 6 | 0.012% | 0.009% | 0.014% | – | – | – | – | –
25 | FVRGDLYSVFG | – | – | – | – | – | 0.023% | 0.026% | 0.024% | 102 | 11
26 | CFSNRISGPAV | – | – | – | – | – | 0.197% | 0.214% | 0.205% | 864 | 92
27 | YIIGSSDYTRG | – | – | – | – | – | 0.033% | 0.039% | 0.036% | 146 | 17
28 | HVFGSRSFTRG | – | – | – | – | – | 0.074% | 0.084% | 0.079% | 323 | 36
29 | GYLNECHTLYTQ | – | – | – | – | – | 0.034% | 0.051% | 0.043% | 149 | 22
30 | LGGRGCFRPCSAAAAAAARTGGG | – | – | – | – | – | 0.050% | 0.042% | 0.046% | 220 | 18
31 | YSSGSRHWTRS | 57 | 7 | 0.015% | 0.013% | 0.016% | – | – | – | – | –
32 | LWGTRSFTLVRS | 64 | 5 | 0.013% | 0.015% | 0.012% | – | – | – | – | –
33 | QFAHRISSCAS | – | – | – | – | – | 0.032% | 0.030% | 0.031% | 139 | 13
34 | CFSRRLTAGAI | – | – | – | – | – | 2.075% | 2.091% | 2.083% | 9078 | 901
35 | CYGGRTFVYAWS | – | – | – | – | – | 0.103% | 0.104% | 0.104% | 450 | 45
